Patent US20250161474A1 (SICHUAN KELUN BIOTECH BIOPHARMACEUTICAL, published 2025)

Tests used:
[1] = target: T1, human c-MET (human, UniProt P08581 25-1390); experiment: flow cytometry on EBC-1 cells (highly express c-MET)
T1 construct: whole, on cells; also called tyrosine protein kinase Met; hepatocyte growth factor receptor
From the text: (§1) A flow cytometer (Beckman, model Cytoflex) was used to detect the interaction between anti-human EGFR/c-MET bispecific antibodies and their conjugates and human gastric cancer cells MKN45 (Nanjing Cobioer Biosciences) and human gastric cancer cells overexpressing human EGFR MKN45-EGFR (Kelun-Biotech), human lung squamous cell carcinoma EBC-1 (Nanjing Cobioer Biosciences), human lung squamous cell carcinoma EBC-1-EGFR overexpressing human EGFR (Kelun-Biotech), human non-small cell lung cancer cell HCC827 (ATCC™), and human epidermal squamous cell carcinoma cell A431 (Nanjing Cobioer Biosciences). The protocol was as follows.
(§2) The adherent cells were digested with Trypsin-EDTA solution (0.25%) (Shanghai BasalMedia) and the cell density adjusted to 4.0×10⁶ per mL. The cells were washed twice with 1% BSA and resuspended in 1% BSA solution. Then 50 μL cell suspension was added to each well of a 96-well plate (the number of cells was 2×10⁵ per well). The antibody and its conjugate were diluted with 1% BSA (final concentration 10 µg/mL, 3-fold gradient dilution, a total of 11 concentration points). Then 50 μL of the diluted antibody and ADC were added to the wells of the 96-well plate and the plate was incubated at 4° C. for 60 minutes. The wells of the 96-well plate were then washed twice with 1% BSA, 50 μL of diluted secondary antibody was added to each well, and the 96-well plate was incubated at 4° C. for 30 minutes. Then the cells were washed twice with 1% BSA, and the cells were resuspended in 200 μL of 1% BSA and subjected to flow cytometry detection.

[2] = target: T1, human c-MET; experiment: flow cytometry on MKN45 cells (highly express c-MET)
From the text: as §1, §2

[3] = target: T1, human c-MET; experiment: cell-based or functional assay

T1 sequence (P08581 25-1390): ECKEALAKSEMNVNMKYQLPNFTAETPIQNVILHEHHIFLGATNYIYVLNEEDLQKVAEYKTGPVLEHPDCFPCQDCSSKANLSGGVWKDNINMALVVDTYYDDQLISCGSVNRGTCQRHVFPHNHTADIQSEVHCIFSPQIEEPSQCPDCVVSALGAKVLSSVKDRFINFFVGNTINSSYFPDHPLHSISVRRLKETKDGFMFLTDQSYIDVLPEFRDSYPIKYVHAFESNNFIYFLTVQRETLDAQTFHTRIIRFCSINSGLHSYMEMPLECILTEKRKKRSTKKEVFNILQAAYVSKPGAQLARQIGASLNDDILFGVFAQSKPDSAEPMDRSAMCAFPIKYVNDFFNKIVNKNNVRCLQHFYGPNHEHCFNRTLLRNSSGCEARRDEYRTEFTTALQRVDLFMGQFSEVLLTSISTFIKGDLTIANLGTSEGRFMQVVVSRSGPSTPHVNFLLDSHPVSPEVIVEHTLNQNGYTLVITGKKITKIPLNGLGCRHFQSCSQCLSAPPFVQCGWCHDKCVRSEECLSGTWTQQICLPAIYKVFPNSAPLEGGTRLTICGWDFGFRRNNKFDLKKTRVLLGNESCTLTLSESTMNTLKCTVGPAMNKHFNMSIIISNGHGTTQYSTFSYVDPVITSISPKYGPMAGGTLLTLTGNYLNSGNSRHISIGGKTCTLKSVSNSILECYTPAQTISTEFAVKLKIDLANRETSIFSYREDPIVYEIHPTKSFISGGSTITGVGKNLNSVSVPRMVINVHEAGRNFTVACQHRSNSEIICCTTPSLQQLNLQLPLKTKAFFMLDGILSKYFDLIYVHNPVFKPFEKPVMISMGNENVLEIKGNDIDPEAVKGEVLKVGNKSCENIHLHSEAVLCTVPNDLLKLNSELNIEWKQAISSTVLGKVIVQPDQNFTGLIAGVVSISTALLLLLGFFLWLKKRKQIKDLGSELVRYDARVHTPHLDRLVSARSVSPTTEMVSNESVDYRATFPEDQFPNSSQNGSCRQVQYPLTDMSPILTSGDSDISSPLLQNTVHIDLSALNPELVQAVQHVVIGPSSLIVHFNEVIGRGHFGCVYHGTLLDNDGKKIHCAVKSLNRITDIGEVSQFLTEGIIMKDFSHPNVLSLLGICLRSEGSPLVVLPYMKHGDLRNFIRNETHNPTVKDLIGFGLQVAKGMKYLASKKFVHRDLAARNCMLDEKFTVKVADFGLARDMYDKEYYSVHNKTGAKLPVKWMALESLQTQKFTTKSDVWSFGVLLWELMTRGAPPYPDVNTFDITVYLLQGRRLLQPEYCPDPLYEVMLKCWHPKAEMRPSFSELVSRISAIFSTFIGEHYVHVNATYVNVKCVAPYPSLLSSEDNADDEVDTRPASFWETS

Binder	EC50 [1] [nM]	EC50 [2] [nM]	IC50, in vitro cell killing (CCK8) on EBC-1 cells [3] [nM]	IC50, in vitro cell killing (CCK8) on MKN45 cells [3] [nM]
BsAb 49B (bispecific antibody, human IgG1, kappa, L234A L235A, Fab-scFv-Fc (KIH) format; anti-c-MET Fab, anti-EGFR scFv; also called BsB 49B; bispecific antibody 49B) light: DIQMTQSPSSLSASVGDRVTITCKSSQSLLYTSSQKNYLAWYQQKPGKAPKLLIYWASTRESGVPSRFSGSGSGTDFTLTISSLQPEDFATYYCQQYYAYPWTFGQGTKVEIKRTVAAPSVFIFPPSDEQLKSGTASVVCLLNNFYPREAKVQWKVDNALQSGNSQESVTEQDSKDSTYSLSSTLTLSKADYEKHKVYACEVTHQGLSSPVTKSFNRGEC heavy: not shown AIQLTQSPSSLSASVGDRVTITCRASQDISSALVWYQQKPGKAPKLLIYDASSLESGVPSRFSGSESGTDFTLTISSLQPEDFATYYCQQFNSYPLTFGGGTKVEIKGGGGSGGGGSGGGGSQVQLVESGGGVVQPGRSLRLSCAASGFTFSTYGMHWVRQAPGKGLEWVAVIWDDGSYKYYGDSVKGRFTISRDNSKNTLYLQMNSLRAEDTAVYYCARDGITMVRGVMKDYFDYWGQGTLVTVSSGGGGDKTHTCPPCPAPEAAGGPSVFLFPPKPKDTLMISRTPEVTCVVVDVSHEDPEVKFNWYVDGVEVHNAKTKPREEQYNSTYRVVSVLTVLHQDWLNGKEYKCKVSNKALAAPIEKTISKAKGQPREPQVCTLPPSRDELTKNQVSLSCAVKGFYPSDIAVEWESNGQPENNYKTTPPVLDSDGSFFLVSKLTVDKSRWQQGNVFSCSVMHEALHNHYTQKSLSLSPGK	1.32	0.34	–	–
ADC 55B-A-14 (bispecific antibody, human IgG1, kappa, L234A L235A, linker-payload A-14 on reduced Cys sulfhydryls (sites not given); DAR of the whole ADC approximately 8) light: DIQMTQSPSSLSASVGDRVTITCKSSQSLLYTSSQKNYLAWYQQKPGKAPKLLIYWASTRESGVPSRFSGSGSGTDFTLTISSLQPEDFATYYCQQYYAYPWTFGQGTKVEIKRTVAAPSVFIFPPSDEQLKSGTASVVCLLNNFYPREAKVQWKVDNALQSGNSQESVTEQDSKDSTYSLSSTLTLSKADYEKHKVYACEVTHQGLSSPVTKSFNRGEC heavy: not shown chain 1: AIQLTQSPSSLSASVGDRVTITCRASQDISSALVWYQQKPGKAPKLLIYDASSLESGVPSRFSGSESGTDFTLTISSLQPEDFATYYCQQFNSYPLTFGGGTKVEIKSSASTKGPSVFPLAPSSKSTSGGTAALGCLVKDYFPEPVTVSWNSGALTSGVHTFPAVLQSSGLYSLSSVVTVPSSSLGTQTYICNVNHKPSNTKVDKKVEPKSC chain 2: QVQLVESGGGVVQPGRSLRLSCAASGFTFSTYGMHWVRQAPGKGLEWVAVIWDDGSYKYYGDSVKGRFTISRDNSKNTLYLQMNSLRAEDTAVYYCARDGITMVRGVMKDYFDYWGQGTLVTVSSASVAAPSVFIFPPSDEQLKSGTASVVCLLNNFYPREAKVQWKVDNALQSGNSQESVTEQDSKDSTYSLSSTLTLSKADYEKHKVYACEVTHQGLSSPVTKSFNRGECDKTHTCPPCPAPEAAGGPSVFLFPPKPKDTLMISRTPEVTCVVVDVSHEDPEVKFNWYVDGVEVHNAKTKPREEQYNSTYRVVSVLTVLHQDWLNGKEYKCKVSNKALAAPIEKTISKAKGQPREPQVCTLPPSRDELTKNQVSLSCAVKGFYPSDIAVEWESNGQPENNYKTTPPVLDSDGSFFLVSKLTVDKSRWQQGNVFSCSVMHEALHNHYTQKSLSLSPGK	–	–	0.42	0.4
ADC 07B-A-05 (bispecific antibody, human IgG1, kappa, linker-payload A-05 on reduced Cys sulfhydryls (sites not given); DAR of the whole ADC approximately 6) light: DIQMTQSPSSLSASVGDRVTITCKSSQSLLYTSSQKNYLAWYQQKPGKAPKLLIYWASTRESGVPSRFSGSGSGTDFTLTISSLQPEDFATYYCQQYYAYPWTFGQGTKVEIKRTVAAPSVFIFPPSDEQLKSGTASVVCLLNNFYPREAKVQWKVDNALQSGNSQESVTEQDSKDSTYSLSSTLTLSKADYEKHKVYACEVTHQGLSSPVTKSFNRGEC heavy: not shown AIQLTQSPSSLSASVGDRVTITCRASQDISSALVWYQQKPGKAPKLLIYDASSLESGVPSRFSGSESGTDFTLTISSLQPEDFATYYCQQFNSYPLTFGGGTKVEIKGGGGSGGGGSGGGGSQVQLVESGGGVVQPGRSLRLSCAASGFTFSTYGMHWVRQAPGKGLEWVAVIWDDGSYKYYGDSVKGRFTISRDNSKNTLYLQMNSLRAEDTAVYYCARDGITMVRGVMKDYFDYWGQGTLVTVSSGGGGDKTHTCPPCPAPELLGGPSVFLFPPKPKDTLMISRTPEVTCVVVDVSHEDPEVKFNWYVDGVEVHNAKTKPREEQYNSTYRVVSVLTVLHQDWLNGKEYKCKVSNKALPAPIEKTISKAKGQPREPQVCTLPPSREEMTKNQVSLSCAVKGFYPSDIAVEWESNGQPENNYKTTPPVLDSDGSFFLVSKLTVDKSRWQQGNVFSCSVMHEALHNHYTQKSLSLSPGK	1.47	–	0.48	–
BsAb 07B (bispecific antibody, human IgG1, kappa, Fab-scFv-Fc (KIH) format; anti-c-MET Fab, anti-EGFR scFv; expressed in CHO-K1; also called bispecific antibody 07B) light: DIQMTQSPSSLSASVGDRVTITCKSSQSLLYTSSQKNYLAWYQQKPGKAPKLLIYWASTRESGVPSRFSGSGSGTDFTLTISSLQPEDFATYYCQQYYAYPWTFGQGTKVEIKRTVAAPSVFIFPPSDEQLKSGTASVVCLLNNFYPREAKVQWKVDNALQSGNSQESVTEQDSKDSTYSLSSTLTLSKADYEKHKVYACEVTHQGLSSPVTKSFNRGEC heavy: not shown AIQLTQSPSSLSASVGDRVTITCRASQDISSALVWYQQKPGKAPKLLIYDASSLESGVPSRFSGSESGTDFTLTISSLQPEDFATYYCQQFNSYPLTFGGGTKVEIKGGGGSGGGGSGGGGSQVQLVESGGGVVQPGRSLRLSCAASGFTFSTYGMHWVRQAPGKGLEWVAVIWDDGSYKYYGDSVKGRFTISRDNSKNTLYLQMNSLRAEDTAVYYCARDGITMVRGVMKDYFDYWGQGTLVTVSSGGGGDKTHTCPPCPAPELLGGPSVFLFPPKPKDTLMISRTPEVTCVVVDVSHEDPEVKFNWYVDGVEVHNAKTKPREEQYNSTYRVVSVLTVLHQDWLNGKEYKCKVSNKALPAPIEKTISKAKGQPREPQVCTLPPSREEMTKNQVSLSCAVKGFYPSDIAVEWESNGQPENNYKTTPPVLDSDGSFFLVSKLTVDKSRWQQGNVFSCSVMHEALHNHYTQKSLSLSPGK	1.46	–	–	–
BsAb 10B (bispecific antibody, human IgG1, kappa, Fab-scFv-Fc (KIH) format; anti-EGFR Fab, anti-c-MET scFv; also called bispecific antibody 10B) light: not shown heavy: not shown DIQMTQSPSSLSASVGDRVTITCKSSQSLLYTSSQKNYLAWYQQKPGKAPKLLIYWASTRESGVPSRFSGSGSGTDFTLTISSLQPEDFATYYCQQYYAYPWTFGQGTKVEIKGGGGSGGGGSGGGGSEVQLVESGGGLVQPGGSLRLSCAASGYTFTSYWLHWVRQAPGKGLEWVGMIDPSNSDTRFNPNFKDRFTISADTSKNTAYLQMNSLRAEDTAVYYCATYRSYVTPLDYWGQGTLVTVSSGGGGDKTHTCPPCPAPELLGGPSVFLFPPKPKDTLMISRTPEVTCVVVDVSHEDPEVKFNWYVDGVEVHNAKTKPREEQYNSTYRVVSVLTVLHQDWLNGKEYKCKVSNKALPAPIEKTISKAKGQPREPQVCTLPPSREEMTKNQVSLSCAVKGFYPSDIAVEWESNGQPENNYKTTPPVLDSDGSFFLVSKLTVDKSRWQQGNVFSCSVMHEALHNHYTQKSLSLSPGK	1.51	1.1	–	–
ADC 56B-A-14 (bispecific antibody, linker-payload A-14 on reduced Cys sulfhydryls (sites not given); DAR of the whole ADC approximately 4) chain 1: not shown chain 2: DIQMTQSPSSLSASVGDRVTITCKSSQSLLYTSSQKNYLAWYQQKPGKAPKLLIYWASTRESGVPSRFSGSGSGTDFTLTISSLQPEDFATYYCQQYYAYPWTFGQGTKVEIKGGGGSGGGGSGGGGSEVQLVESGGGLVQPGGSLRLSCAASGYTFTSYWLHWVRQAPGKGLEWVGMIDPSNSDTRFNPNFKDRFTISADTSKNTAYLQMNSLRAEDTAVYYCATYRSYVTPLDYWGQGTLVTVSSGGGGDKTHTCPPCPAPEAAGGPSVFLFPPKPKDTLMISRTPEVTCVVVDVSHEDPEVKFNWYVDGVEVHNAKTKPREEQYNSTYRVVSVLTVLHQDWLNGKEYKCKVSNKALAAPIEKTISKAKGQPREPQVCTLPPSRDELTKNQVSLSCAVKGFYPSDIAVEWESNGQPENNYKTTPPVLDSDGSFFLVSKLTVDKSRWQQGNVFSCSVMHEALHNHYTQKSLSLSPGK	–	–	2.95	1.17
BsAb 38B (bispecific antibody, human IgG1, kappa, L234A L235A, Fab-scFv-Fc (KIH) format; anti-EGFR Fab, anti-c-MET scFv; also called bispecific antibody 38B) light: not shown heavy: not shown DIQMTQSPSSLSASVGDRVTITCKSSQSLLYTSSQKNYLAWYQQKPGKAPKLLIYWASTRESGVPSRFSGSGSGTDFTLTISSLQPEDFATYYCQQYYAYPWTFGQGTKVEIKGGGGSGGGGSGGGGSEVQLVESGGGLVQPGGSLRLSCAASGYTFTSYWLHWVRQAPGKGLEWVGMIDPSNSDTRFNPNFKDRFTISADTSKNTAYLQMNSLRAEDTAVYYCATYRSYVTPLDYWGQGTLVTVSSGGGGDKTHTCPPCPAPEAAGGPSVFLFPPKPKDTLMISRTPEVTCVVVDVSHEDPEVKFNWYVDGVEVHNAKTKPREEQYNSTYRVVSVLTVLHQDWLNGKEYKCKVSNKALAAPIEKTISKAKGQPREPQVCTLPPSRDELTKNQVSLSCAVKGFYPSDIAVEWESNGQPENNYKTTPPVLDSDGSFFLVSKLTVDKSRWQQGNVFSCSVMHEALHNHYTQKSLSLSPGK	–	1.16	–	–
ADC 38B-A-14 (bispecific antibody, human IgG1, kappa, L234A L235A, linker-payload A-14 on reduced Cys sulfhydryls (sites not given); DAR of the whole ADC approximately 6) light: not shown heavy: not shown DIQMTQSPSSLSASVGDRVTITCKSSQSLLYTSSQKNYLAWYQQKPGKAPKLLIYWASTRESGVPSRFSGSGSGTDFTLTISSLQPEDFATYYCQQYYAYPWTFGQGTKVEIKGGGGSGGGGSGGGGSEVQLVESGGGLVQPGGSLRLSCAASGYTFTSYWLHWVRQAPGKGLEWVGMIDPSNSDTRFNPNFKDRFTISADTSKNTAYLQMNSLRAEDTAVYYCATYRSYVTPLDYWGQGTLVTVSSGGGGDKTHTCPPCPAPEAAGGPSVFLFPPKPKDTLMISRTPEVTCVVVDVSHEDPEVKFNWYVDGVEVHNAKTKPREEQYNSTYRVVSVLTVLHQDWLNGKEYKCKVSNKALAAPIEKTISKAKGQPREPQVCTLPPSRDELTKNQVSLSCAVKGFYPSDIAVEWESNGQPENNYKTTPPVLDSDGSFFLVSKLTVDKSRWQQGNVFSCSVMHEALHNHYTQKSLSLSPGK	1.29	–	1.03	0.3
